The data set concerns the target Nsp8 NTD (SARS-CoV-2, UniProt P0DTD1). The data set can be described thus: NMR.

The results in this text go back to article PMC10570013.

In general, Kd refers to the free concentration of one partner at which half of the binding sites on the other are occupied at equilibrium, for simple one-to-one binding. A higher Kd goes with weaker binding.

B1: model dsRNA (dsRNA)
RNA 1: GAUGCUACGCGGUAGUA
RNA 2: GUACUACCGCGUAGCAUC
B1: the Kd was around 14.1 µM.
